Data: the DeepSol protein solubility set

Experiment: soluble on expression in E. coli; label from the status in PepcDB or PDB records
In the case of “AIARENEAVKPTIQAVYLAAGLSSRFGGRIKCLQEVGRHGETLLELSVRQLCEAYPAISSLVFVVSEATHLPIHALIGEQFYGLPVYFCVQRVPAWRKRPLGTVDALLAAREHIHGPFIVLNGDSLYGVAALSLVCNHITAAKTACMPGYKLREVLPKEGRVNRAIVQTDERHRVLEIVEQYNIGFEDIEEGRYTGDELTSMNVFGFHDTSIFARADERFRRFLSELEALRDDHHLQQQQQSVKRCSTDENDVYAHKEYILSTMLNELLHDAQIELMVLSCNSIRTPLELTNPGDFAFVKNHLDLVGL”, the “soluble on expression in E. coli” value is reported as “soluble”.
With “MGSDKIHHHHHHMNKELFCIENLRVAYPQRSGEELQWAIDDVSFTLQPGERMGLVGESGCGKSTLGRAAMRLLPPSSLVEGRVTFQGKSVFDLTPNELRKFRGEAVALIFQDPMTRLDPLMTIGNHCIETLQAHAPELSAKEAKEKALATLEKVKIPASRWGQYPHEFSGGMRQRVAIALALLLNPKLIVADEPTTSLDVTVSAQILQELTRLCSEENMALLLISHDLAMVAEYCSRIGVMYNGKMVEMGTTESVFKNPQHEYTRSLLKAALHIQAVDEGSSEASQSPIPSPQSPILRITELKQYYTIEPNFVERLFKAESQTIKAVDGINLELYPGEILGLVGESGCGKSTLSRTILQLIRPTSGKVEFLGQDLTKLSRQEIRACRRQIQMVFQDPHACLNPAMTVGESIADPLLIHHLADAAKAKEQVLWMLQKVGLTPPEVYYQRYPSDLSGGQQQRVAIARALITRPKMLICDEPVSMLDASVQSQVLDLMLQLKEEFELTYLFITHDLWLARFLCDRIAVMHGGKIVELGETKQIFAHPQHPYTQTLLAAAPLLARA” the “soluble on expression in E. coli” value was “not soluble”.
With “MSLSRLLNDFNQSLKKGFIDKDISHKGNYTPKLLVNNKNEKVLSTIIDELQKCETFYFSVAFITESGLASLKAQLLDLSNKGVKGKILTSNYLGFNSPKMYGELLKLKNVEVRLTDIAGFHAKGYIFEHKDYSSMVIGSSNLTSNALKVNYEHNVLLSTMKNGDLVDSVKNEFELLWQKSTPLTEQWINSYKESFEYRSLEKLAEVEQTQMLLADKVKKSVEIVPNLMQAEALRSLKAIRDKTKDKALIISATGTGKTILCALDVREVNPNKFLFIVHNEGILNRAKEEFKKVLPIKNDSDFGLLTGKHRDVDAKYLFATIQTLSRDDNFKQFDENEFDYIVFDEAHRSAASTYQRVFNYFKPKFMLGMTATPERSDELSIFELFDYNIAYEIRLQAALESDILCPFHYFGVTDYVHQGIKEDDVTKLRYLTSDERVNYIIQKTDEGHHHHHH” the “soluble on expression in E. coli” value was “not soluble”.
For “MGSDKIHHHHHHYLPDDEPKKLIVNAMMQTENNDNRIYLHYTGWTATTPVTDGIIHLYINGKLSETITAEDDYYPVKSIFRTGDKVKIEASSENGKYKAKAETRISAPLQIINVDTTYISLRDYNSWVGGKPVYDNYLRLNIQLKQPDIEAENTYYRLEIKQIFYSHKWHDGRDTLSIDTTYNYNYIYDTALTDGKPGHAIDEGFELIQKWNNYFGLFKSCYFKNREYNMTIDLKEDINYIHIDSQKAERYISIRFYSISESEHRYLYAMSSALDFDAENFIYAVPLIPNNIKGGIGIFSIANQVKYKLKEENCQDRY”, the “soluble on expression in E. coli” value was “not soluble”.
With “MLEHLIKISRRNWSSLKVIILAGGRGKRITLFKPFLVVCGKPLISWAFDAVNKLSDKVYLGINQSHPLFTIFKHSIFKIFPTPDISYENDVKYVVESLGPPILVLPVDIAFINNNIINNLIERCAVDMCTLKSYGSYLGVTYWTGLNFSNYTDIEVKEKLYNINTWEDYIKANKECNILLEHHHHHH” the “soluble on expression in E. coli” value was “soluble”.
In the case of “MGLIMAKLFQSWWIGKKYKIIVVGLDNAGKTTILYNYVTKDQVETKPTIGSNVEEVSYRNLDFVIWDIGGQESLRKSWSTYYVQTDVVIVVIDSSDTTRIPIMKEQLHNMLQHEDLARAHILVLANKQDLPGAMNPAEVSTQLGLQTLRGARKWQINGCCAVKGEGLPEALEWIANNL”, the “soluble on expression in E. coli” value is reported as “not soluble”.
For “MPVKCPGEYQVDGKKVILDEDCFMQNPEDWDEKVAEWLARELEGIQKMTEEHWKLVKYLREYWETFGSCPPIKMVTKETGFSLEKIYQLFPSGPAHGACKVAGAPKPTGCV”, the “soluble on expression in E. coli” value was “soluble”.
In the case of “VWVSENIERLIGYTPGEALAPGWWLSHLYPDDREQVLERQPILLSDGQLTHDYRFYHRDGRIIWILDELRLIRNADGQPHEVVGTWLDIS”, the “soluble on expression in E. coli” value is reported as “not soluble”.
In the case of “MGSDKIHHHHHHMGLAFEHVTLGQRVLFGTGTAAPSLASEVARLGARRVMVITSNRARETAYRIAADVEVALWHHDVAMHVPIETARKARAAAGEHGIDLLVCVGGGSTTGLAKAIAMTLRLPIIAVPTTYAGSEATNVWGLTEASRKTTGVDDAVLPVTVIYDAALTLALPVAMSVASGLNGIAHCIDSMWAPGADPINAALGAEGIRALSHGLPLIAEDPAGTEGREQALYGAYLSAVAFASAGSGLHHKICHVLGGAFNLPHAQVHATVLPYVLAFNAPYASDSEARIAAAFGTADALTGLQELRNRLDAPKALSDYGLTADGAAEAAAVVQPTVPASNPRPVTTENLTRLLQAALSGEDPRCLLEH”, the “soluble on expression in E. coli” value is reported as “not soluble”.
In the case of “SLVMKASVDDDDSGWELSMPEKMEKSNTNWVDITQDFEEACRELKLGELLHDKLFGLFEAMSAIEMMDPKMDAGMIGNQVNRKVLNFEQAIKDGTIKIKDLTLPELIGIMDTCFCCLITWLEGHSLAQTVFTCLYIHNPDFIEDPAMKAFALGILKICDIAREKVNKAAVFEEEDFQSMTYGFKMANSVTDLRVTGMLKDVEDDMQRRVKSTRSRQGEERDPEVELEHQQCLAVFSRVKFTRVLLTVLIAFTKKETSAVAEAQKLMVQAADLLSAIHNSLHHGIQAQNDTT”, the “soluble on expression in E. coli” value is reported as “soluble”.
With “MQILTLISWDFKRNNNFFNQAVLNPYEYWADILEKNGISRYVILLTCNRVEIYLRAGFPEDLEAMKPNVLHDEEAIKHLMEVSSGLDSMSLGENEILKQVKEAYELSVRNGKVDKVLSLIFQKAIFVGKKVRSETEISRGKVSVPSIVYDILSSRVVQKVLIIGNGMIAGEIAPYLSGKFEVTIAGRNIDHVKDLASKYNYSYTTINDLHELIMRNDAIISATSSKTPIIRREEMVEGKLYIDLGNPRNIEDKPGADIITIDDIYSVSNRNGSARMESVDEARRIIEIEMASLMNKIKDVMIDEIFADFYKFAVVVQKMEIEKFSRMHPEIPASDVEAFAHSMINKVMNIPVMTLKSVARSQSNQDFSRIFSKFYDNFSDLVSAALQSYEGRQDTQSLRDRTRRLLQRS” the “soluble on expression in E. coli” value was “not soluble”.
With “MNIFDHYRQRYEAAKDEEFTLQEFLTTCRQDRSAYANAAERLLMAIGEPVMVDTAQEPRLSRLFSNRVIARYPAFEEFYGMEDAIEQIVSYLKHAAQGLEEKKQILYLLGPVGGGKSSLAERLKSLMQLVPIYVLSANGERSPVNDHPFCLFNPQEDAQILEKEYGIPRRYLGTIMSPWAAKRLHEFGGDITKFRVVKVWPSILQQIAIAKTEPGDENNQDISALVGKVDIRKLEHYAQNDPDAYGYSGALCRANQGIMEFVEMFKAPIKVLHPLLTATQEGNYNGTEGISALPFNGIILAHSNESEWVTFRNNKNNEAFLDRVYIVKVPYCLRISEEIKIYEKLLNHSELTHAPCAPGTLETLSRFSILSRLKEPENSSIYSKMRVYDGESLKDTDPKAKSYQEYRDYAGVDEGMNGLSTRFAFKILSRVFNFDHVEVAANPVHLFYVLEQQIEREQFPQEQAERYLEFLKGYLIPKYAEFIGKEIQTAYLESYSEYGQNIFDRYVTYADFWIQDQEYRDPDTGQLFDRESLNAELEKIEKPAGISNPKDFRNEIVNFVLRARANNSGRNPNWTSYEKLRTVIEKKMFSNTEELLPVISFNAKTSTDEQKKHDDFVDRMMEKGYTRKQVRLLCEWYLRVRKSS” the “soluble on expression in E. coli” value was “soluble”.
In the case of “MAHHHHHHMSRCGRKLDMSSGYWLPRRLLLVRHGESEANVDRALYSKVPDWKIPLTARGREQAFECGRRLRKIIKNEKLYVYYSPYTRTRQTLTEVRKSLLPSQVQGEREDERLREQEIGNFQPLDKMDEMWAERSEFGRSYYRFPDGESSVDVGDRVSKFFDSLFRERVELNYLSARKQMITGSSNDVGPASFTVPDDDDHNVVIISHGLLIRLFVGRWYSAPMEVFETMKNPPNCGIVVLERREAGRLVMTDTSKKLFGSDPLLEMMKFDGKDNVQLFRHLFAEGGYSFSAGEGTDR”, the “soluble on expression in E. coli” value is reported as “soluble”.
In the case of “YRALFEHAIDGIFIMDAEGHYLDVNPAICSAIGYTRDEFLALDWGVLSRGVDSGWAAASLARIVGGEPLREERTVWTRNGDQLTVELSAHLLPDGKILGIARDVS”, the “soluble on expression in E. coli” value is reported as “soluble”.
